Experimental data as given in patent US6084068.
Where two headings read alike, the source gives them in different places.

How the values were obtained:
RNA Polymerase II (rat) [1] = target: RNA Polymerase II (rat)
RNA Polymerase II (rat) [2] = target: RNA Polymerase II (rat); remark: listed apart in the source

runoff transcription from the AdML promoter by RNA Polymerase II (RNA Polymerase II (rat) [1]) [%] | runoff transcription from the AdML promoter by RNA Polymerase II (RNA Polymerase II (rat) [2]) [%] | Substance
50 |  | Elongin A deletion mutant 1-680
 | > 50 | Elongin A deletion mutant 1-730
